For one data set, the target named is T1, MBP-TAp63αR (Mus musculus, UniProt O88898 40-680, R318H).
T1 sequence: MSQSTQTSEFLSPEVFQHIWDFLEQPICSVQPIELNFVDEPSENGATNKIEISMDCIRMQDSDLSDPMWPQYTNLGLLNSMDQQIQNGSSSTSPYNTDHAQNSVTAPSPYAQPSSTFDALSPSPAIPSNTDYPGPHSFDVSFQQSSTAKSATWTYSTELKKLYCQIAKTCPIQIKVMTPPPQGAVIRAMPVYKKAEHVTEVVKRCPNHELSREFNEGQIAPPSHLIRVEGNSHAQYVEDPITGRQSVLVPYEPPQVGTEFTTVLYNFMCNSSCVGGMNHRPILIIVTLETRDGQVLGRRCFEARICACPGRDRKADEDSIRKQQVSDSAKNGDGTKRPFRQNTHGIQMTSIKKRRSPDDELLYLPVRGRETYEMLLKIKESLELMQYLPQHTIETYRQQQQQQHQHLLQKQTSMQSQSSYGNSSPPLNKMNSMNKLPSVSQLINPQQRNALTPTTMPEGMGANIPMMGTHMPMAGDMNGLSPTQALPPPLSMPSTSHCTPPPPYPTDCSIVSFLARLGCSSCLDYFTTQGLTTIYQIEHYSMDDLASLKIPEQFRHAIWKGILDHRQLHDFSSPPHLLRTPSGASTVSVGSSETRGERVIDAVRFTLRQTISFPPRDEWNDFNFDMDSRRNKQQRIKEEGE
Briefly: fluorescence anisotropy; 300 nM DNA; 10 mM potassium phosphate pH 7.6, 200 mM NaCl, room temperature, 30 min; 15 nM p21 DNA (300 nM for controls), protein 0.1-15 µM monomer. The note with it: protein: recombinant; tags: N-term MBP; C-term His6; chain copies: 4; label: 5'-fluorescein.

Data set [1] addresses T2, MBP-TAp63α (Mus musculus, UniProt O88898 40-680).
T2 sequence: T1 sequence with H279R
The data set is described as above. The settings on record: protein: recombinant; tags: N-term MBP; C-term His6; chain copies: 2; label: 5'-fluorescein.

Data set [2] has as its target T2, MBP-TAp63α. The data set can be described thus: fluorescence anisotropy; two-site fit, monomer concentration; second-site KD negative, uninterpreted; 10 mM potassium phosphate pH 7.6, 200 mM NaCl, room temperature, 30 min; 15 nM p21 DNA (300 nM for controls), protein 0.1-15 µM monomer. The note with it: protein: recombinant; tags: N-term MBP; C-term His6; chain copies: 2; label: 5'-fluorescein.

Changes are numbered by the printed parent chain.

B1: SELEX-based p63 binding sequence (dsDNA)
DNA 1: CCTATTCTAGACATGTGAGGACATGTCGATACTTATTCC
DNA 2: GGAATAAGTATCGACATGTCCTCACATGTCTAGAATAGG
With B1, the binding result in the data set with MBP-TAp63αR is “no binding”.

B2: random sequence (dsDNA)
DNA 1: CGAGTTGTAAGTCGAATTGATACCATAATGCACTACACG
DNA 2: CGTGTAGTGCATTATGGTATCAATTCGACTTACAACTCG
With B2, the binding result with MBP-TAp63α [1] and with MBP-TAp63αR was “no binding” throughout.

B3: p21 promoter response element (dsDNA)
DNA 1: GGCAGGAACATGTCCCAACATGTTGAGCCG
DNA 2: CGGCTCAACATGTTGGGACATGTTCCTGCC
The Kd is the equilibrium constant for the complex coming apart. In the case of B3, the Kd with MBP-TAp63α [2] is 7.51 ± 1.32 µM.

The values are drawn from PMC3087504, “DNA Damage in Oocytes Induces a Switch of the Quality Control Factor TAp63α from Dimer to Tetramer”.
